Where “and” joins values, the source holds several entries; their conditions need not be identical. Equal values may be shown once. Read-outs that look alike come from different tables or passages of the source.

Assay [1] has as its target NadA-specific binding sites on macrophage (human). As to the kind of experiment: flow cytometry (MFI), Alexa-NadA displaced by unlabelled NadA on macrophages, 37° C.
Assay [2] has as its target specific NadA binding sites on monocytes (human). Briefly: NadA-I125 binding to monocytes, Scatchard plot; value counted on the homo-trimer.
Assay [3] has as its target high affinity binding sites for NadA on immature mo-DCs (human). As to the kind of experiment: flow cytometry of Alexa-NadA on mo-DCs, Scatchard analysis.
Assay [4] addresses low affinity binding sites for NadA on immature mo-DCs (human). The description is as above.
Assay [5] deals with high affinity binding sites for NadA on immature mo-DCs (human). As to the kind of experiment: flow cytometry of Alexa-NadA on mo-DCs, Scatchard plot.
In assay [6] the target is low affinity binding sites for NadA on immature mo-DCs (human). The assay is described as above.
In assay [7] the target is specific NadA binding sites on monocytes (human).
The test system of assay [8] is mo-DCs. Briefly: Expression of maturation markers on mo-DCs (flow cytometry). Format: cell-based, human. Conditions: flagellin 10 μg/ml; for CD86 expression: LPS 0.1 μg/ml. The procedure:
Reagents used were tested for low endotoxin contamination using the Limulus amoebocyte assay (Sigma). Dendritic cells were generated from human peripheral blood mononuclear cells (PBMC) as described previously. In brief, PBMC were isolated from buffy coats of healthy donors by Ficoll-Paque Plus density gradient centrifugation (Amersham Pharmacia Biotech AB). Separate monocyte and T-cell fractions were obtained from PBMCs by Percoll density gradient centrifugation (Amersham Pharmacia Biotech AB). […] DC were obtained by 6-d culture adherent monocytes in medium with 20 ng/ml IL-4 (5×10^6 units/mg, Peprotech) and 50 ng/ml GM-CSF (1×10^7 units/mg, Peprotech). Cytokines were added again on day 4 in RPMI-1640 medium supplemented with 10% FBS. […] After 24 h cells were harvested and analysed. Culture supernatants were collected frozen in liquid nitrogen and conserved at −80° C. for cytokine analysis.
After differentiation, DC were routinely stained with phycoerytrin conjugated monoclonal antibodies to human CD14, CD1a, CD83, CD86 (B7.2), CD80 (B7.1), MHC II (HLA-DR), purchased from BD-Pharminghen and Caltag. In parallel, cells were stained with the isotype matched control mAb. Cells were immunostained with the proper dilution of PE-conjugated anti human monoclonal antibodies at 4° C. for 30 min in 100 μl of phosphate-buffered saline pH 7.2 (PBS, GIBCO BRL) containing 1% FBS and 0.1% NaN3 (FACS buffer). After washing, propidium iodide was added to exclude dead cells and cell fluorescence intensities of the gated populations were measured with a EPICS XL-MCL (Coulter) flow cytometer and analyzed with EXPO 32ADC XL 3COLOR or WinMDI 2.8. software. Data were collected on 10000-20000 events.

For assay [9], the system named is mo-DCs. As to the kind of experiment: Cytokine and chemokine secretion by mo-DCs (Bio-Plex, ELISA). It counts as cell-based, human. As to conditions: after IFN-γ priming; flagellin 10 μg/ml, CpG 10 μg/ml, maximal LPS. The procedure:
Reagents used were tested for low endotoxin contamination using the Limulus amoebocyte assay (Sigma). Dendritic cells were generated from human peripheral blood mononuclear cells (PBMC) as described previously. In brief, PBMC were isolated from buffy coats of healthy donors by Ficoll-Paque Plus density gradient centrifugation (Amersham Pharmacia Biotech AB). Separate monocyte and T-cell fractions were obtained from PBMCs by Percoll density gradient centrifugation (Amersham Pharmacia Biotech AB). Residual T and B cells were removed from monocyte fraction by plastic adherence of 3×10^6 cells per well in 6-well plates (Costar) resulting in CD14^+ monocyte populations of >95% purity (determined by flow cytometry). DC were obtained by 6-d culture adherent monocytes in medium with 20 ng/ml IL-4 (5×10^6 units/mg, Peprotech) and 50 ng/ml GM-CSF (1×10^7 units/mg, Peprotech). Cytokines were added again on day 4 in RPMI-1640 medium supplemented with 10% FBS. Following this procedure more than 90% cells belonged to the immature DC phenotype (CD1a^+, HLADRlow, CD14^−, CD83^−, CD86^low, CD80^low). On day 5 cells were treated with nothing or with recombinant human IFN-γ (1000 U/ml) for 18 h before stimulation with NadA (0.0375-5 μM) or LPS (1 μg/ml). After 24 h cells were harvested and analysed. Culture supernatants were collected frozen in liquid nitrogen and conserved at −80° C. for cytokine analysis.
The antibody pairs used, directed against different non-competing epitopes of a given cytokine, were purchased from BioRad. Calibration curves from recombinant cytokine standard were prepared with four-fold dilution steps in RPMI-1640 medium containing 10% FBS. Assays were carried out in 96-well sterile pre-wetted filter plates at room temperature and protected from light. A mixture containing 5000 microspheres per cytokine was incubated together with standard or sample in a final volume of 50 μl for 30 min, under continuous shaking (300 rpm). After three washes by vacuum filtration with Bio-Plex washing buffer a cocktail of biotinylated antibodies diluted in Bio-Plex detection antibody diluent was added (25 μl to each well). After a 30 minutes incubation and washing, Streptavidin-PE diluted in Bio-Plex Assay buffer was added (50 μl per well). At the end of 10 minutes incubation under continuous shaking and after washing the fluorescence intensity of the beads was measured in a final volume of 125 μl of Bio-Plex assay buffer. Data analysis was done with Bio-Plex Manager software using a five-parametric-curve fitting. The detection limits were […].
IL12(p40) was measured by capture enzyme-linked immunosorbent assay (ELISA) with antibody pairs and cytokine standard purchased from Bender MedSystems. The concentrations of IL12(p40) in the cell-free supernatants were determined with ELISA kits according to the manufacturer's instructions. The detection limit of the assays was […].

Assay [10] deals with mo-DCs. Described as above. It counts as cell-based, human. Conditions: even after IFN-γ priming; flagellin, LPS 100 μg/ml (so in the source).

Take “NadAΔ351-405 (from UniProt P0DV44 24-350)”: in assay [1], the decrease of the signal with unlabelled NadA is -50%. In addition, the equilibrium dissociation constant (Kd) in assay [2] is 1000 nM; in [3], 90 nM; in assay [4] it was 4000 nM; in assay [5], 50 to 100 nM; in [6] it was 3000 nM and 5000 nM; in assay [7], 3000 nM. Besides, the fraction of binding sites was 30% and 20% in assay [5]; 70 to 80% in [6]. The decrease of the signal with 5 uM unlabelled NadA in assay [7] was -50%.

For the substance flagellin [reference compound], the “CD86 expression on co-stimulation with R-848” value in the assay with mo-DCs [8] (R-848 1 μM, after IFN-γ priming, NadA 1.5 μM) was “not further increased”. The CD86 expression entry in the assay on mo-DCs [8] (after IFN-γ priming, CpG up to 10 μg/ml) is “comparable to that induced by NadA 1.5 μM”; in the assay on mo-DCs [8] (no IFN-γ priming) it was “significant increase”. Also, in the assay with mo-DCs [9], the “IL-12(p70) secretion” value is “comparable to that induced by both 0.25 μM (9 μg/ml) and 1.5 μM (50 μg/ml) NadA”. In addition, the “IL-12 secretion with R-848 co-stimulation” value in the assay on mo-DCs [10] is listed as “ineffective”.

Source of the values: patent US20110008279A1, “Methods and Compositions Relating to Adhesins as Adjuvants” (priority 2005, published 2011).
